From patent US20090136977A1 (published 2009)

Molecular target: affinity purified BACE1 (BACE1-myc, wild type) (UniProt P56817 22-501, limits assumed)
Assay: cell-based or functional assay

Chain of affinity purified BACE1 (BACE1-myc, wild type) (P56817 22-501 limits assumed, form in doubt): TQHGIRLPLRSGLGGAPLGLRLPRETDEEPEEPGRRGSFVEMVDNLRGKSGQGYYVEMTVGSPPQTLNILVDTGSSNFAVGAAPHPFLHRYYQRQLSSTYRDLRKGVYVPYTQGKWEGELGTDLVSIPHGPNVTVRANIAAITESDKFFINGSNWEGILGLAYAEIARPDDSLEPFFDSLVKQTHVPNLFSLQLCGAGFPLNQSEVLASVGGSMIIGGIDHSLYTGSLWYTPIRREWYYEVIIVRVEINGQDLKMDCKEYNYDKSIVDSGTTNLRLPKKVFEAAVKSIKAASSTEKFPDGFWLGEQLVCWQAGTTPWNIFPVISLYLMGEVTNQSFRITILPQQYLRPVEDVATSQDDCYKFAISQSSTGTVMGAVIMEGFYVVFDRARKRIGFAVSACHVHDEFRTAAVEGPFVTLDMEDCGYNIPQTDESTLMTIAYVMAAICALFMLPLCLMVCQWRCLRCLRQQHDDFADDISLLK

B1: ATase1 (acetyltransferase 1) with a myc tag at the C-terminus (enzyme, not shown: small tags and cut ends)
chain: MAPYHIRKYQESDRKSVVGLLSRGMAEHAPATFRRLLKLPRTLILLLGGALALLLVSGSWILALVFSLSLLPALWFLAKKPWTRYVDIALRTDMSDITKSYLSECGSCFWVGESEEKVVGTVGALPVDDPTLREKRLQLFHLSVDNEHRGQGIAKALVRTVLQFARDQGYSEVVLDTSNIQLSAMGLYQSLGFKKTGQSFFHVWARLVDLHTVHFIYHLPSAQAGRL
In the case of B1, the “acetyltransferase activity recovered from cell extracts (acceptor: affinity purified BACE1)” value is reported as about 2 fold.

B2: ATase2 (acetyltransferase 2) with a myc tag at the C-terminus (enzyme, not shown: small tags and cut ends)
chain: MAPCHIRKYQESDRQWVVGLLSRGMAEHAPATFRQLLKLPRTLILLLGGPLALLLVSGSWLLALVFSISLFPALWFLAKKPWTEYVDMTLCTDMSDITKSYLSERGSCFWVAESEEKVVGMVGALPVDDPTLREKRLQLFHLFVDSEHRRQGIAKALVRTVLQFARDQGYSEVILDTGTIQLSAMALYQSMGFKKTGQSFFCVWARLVALHTVHFIYHLPSSKVGSL
With B2 the “acetylCoA:lysine acetyltransferase activity recovered from total cell extracts (acceptor: affinity purified BACE1)” value was about 3 fold.
